Biological target: GFP-NAIP2 (mouse) (UniProt Q9QUK4)
Assay: co-IP

UniProt Q9QUK4, sequence (Q9QUK4 whole entry): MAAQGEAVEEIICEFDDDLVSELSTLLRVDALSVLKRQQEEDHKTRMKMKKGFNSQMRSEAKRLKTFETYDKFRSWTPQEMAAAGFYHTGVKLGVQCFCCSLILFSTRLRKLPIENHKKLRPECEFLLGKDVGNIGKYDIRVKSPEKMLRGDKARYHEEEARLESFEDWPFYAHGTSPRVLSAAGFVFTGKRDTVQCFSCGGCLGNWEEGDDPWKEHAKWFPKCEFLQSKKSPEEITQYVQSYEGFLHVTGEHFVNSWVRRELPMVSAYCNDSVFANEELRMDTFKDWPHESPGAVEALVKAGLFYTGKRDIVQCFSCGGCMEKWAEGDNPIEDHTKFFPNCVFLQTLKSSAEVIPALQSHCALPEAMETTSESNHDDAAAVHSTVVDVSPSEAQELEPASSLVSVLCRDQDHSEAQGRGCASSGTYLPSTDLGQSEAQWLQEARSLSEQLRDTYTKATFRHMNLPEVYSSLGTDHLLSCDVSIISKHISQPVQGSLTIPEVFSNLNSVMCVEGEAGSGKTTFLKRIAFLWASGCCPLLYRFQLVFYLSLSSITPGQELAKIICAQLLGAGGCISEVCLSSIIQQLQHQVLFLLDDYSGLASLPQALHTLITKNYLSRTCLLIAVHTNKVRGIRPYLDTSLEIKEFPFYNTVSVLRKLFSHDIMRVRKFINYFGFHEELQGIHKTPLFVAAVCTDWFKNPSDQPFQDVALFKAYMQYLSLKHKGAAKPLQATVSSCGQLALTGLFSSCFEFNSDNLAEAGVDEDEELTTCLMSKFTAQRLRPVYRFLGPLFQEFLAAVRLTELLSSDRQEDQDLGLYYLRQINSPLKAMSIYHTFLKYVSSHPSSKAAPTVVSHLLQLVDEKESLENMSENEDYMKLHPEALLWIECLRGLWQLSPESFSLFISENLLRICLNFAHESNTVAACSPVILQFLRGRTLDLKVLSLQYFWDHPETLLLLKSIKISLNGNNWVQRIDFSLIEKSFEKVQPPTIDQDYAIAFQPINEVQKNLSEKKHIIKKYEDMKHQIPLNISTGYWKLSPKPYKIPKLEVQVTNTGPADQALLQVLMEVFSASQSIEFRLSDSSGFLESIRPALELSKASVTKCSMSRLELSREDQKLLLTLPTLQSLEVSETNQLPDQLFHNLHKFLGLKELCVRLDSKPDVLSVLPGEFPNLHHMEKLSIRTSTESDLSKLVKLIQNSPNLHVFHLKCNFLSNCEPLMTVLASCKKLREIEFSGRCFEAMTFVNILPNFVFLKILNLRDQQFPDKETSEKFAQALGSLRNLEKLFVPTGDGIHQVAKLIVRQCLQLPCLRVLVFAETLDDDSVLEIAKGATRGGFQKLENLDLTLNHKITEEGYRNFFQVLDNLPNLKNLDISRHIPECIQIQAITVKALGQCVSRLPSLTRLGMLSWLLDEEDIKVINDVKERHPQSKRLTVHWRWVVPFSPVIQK

Substance: GFP-PrgJ (from UniProt P41785 1-101) (ligand)
- stoichiometry N (ligand per NAIP): 1

From publication PMC3988258
